Substitutions are numbered along the chain they refer to. “And” between values parts separate entries of the source, which are not always exact repeats. Equal values may be shown once.
T1: human PAR-2 (human, UniProt P55085 26-397)
T1 sequence: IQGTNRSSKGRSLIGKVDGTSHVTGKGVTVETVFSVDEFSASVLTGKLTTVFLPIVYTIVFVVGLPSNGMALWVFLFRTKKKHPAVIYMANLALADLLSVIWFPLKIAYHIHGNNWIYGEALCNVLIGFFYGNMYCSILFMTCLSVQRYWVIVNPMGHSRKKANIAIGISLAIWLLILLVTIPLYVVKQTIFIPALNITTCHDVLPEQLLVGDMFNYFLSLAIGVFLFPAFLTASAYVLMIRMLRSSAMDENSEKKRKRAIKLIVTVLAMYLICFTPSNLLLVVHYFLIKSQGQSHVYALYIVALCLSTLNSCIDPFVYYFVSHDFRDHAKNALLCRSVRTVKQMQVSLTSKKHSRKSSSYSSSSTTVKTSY

B1: P24E915 (antibody, human IgG4 S228P, kappa, V domains shown)
VH: QVQLVQSGAEVKKPGSSVKVSCKASGFSLSSYAISWVRQAPGQGLEWMGVIWGNGNTYYAQKFQGRVTITADESTSTAYMELSSLRSEDTAVYYCARWKGYKDYPFDYWGQGTLVTVSS
VL: EIVLTQSPATLSLSPGERATLSCKASQNVYKWLDWYQQKPGQAPRLLIYNAYSLATGIPARFSGSGSGRDFTLTISSLEPEDFAVYYCQQHNSGWTFGGGTKVEIKR
B2: P24E978 (antibody, human IgG4 S228P, kappa, V domains shown)
VH: B1 VH with G55Q, T57V
VL: B1 VL with K24R, N50D, L54R, N92H, S93H
B3: P24E41 (antibody, human IgG4 S228P, kappa, V domains shown)
VH: B1 VH with S30N, A33G, I34V, S35I, A60N, K99R
VL: B1 VL with V29I, W32Y, N50D, Y52S, S53N, L54R, Q89L
B4: P24E935 (antibody, human IgG4 S228P, kappa, V domains shown)
VH: B1 VH with T57V, Y104H
VL: B1 VL with K24R, L54R, N92H, S93H
B5: P24E934 (antibody, human IgG4 S228P, kappa, V domains shown)
VH: B1 VH with T57V, Y104H
VL: B1 VL with K24R, L54R, N92H
B6: P24E40 (antibody, human IgG4 S228P, kappa, V domains shown)
VH: B1 VH with S30N, A33G, I34V, S35I, A60N, K99R
VL: B1 VL with V29I, W32Y, A51T, Y52N, Q89L
B7: P24E922 (antibody, human IgG4 S228P, kappa, V domains shown)
VH: B1 VH with K99R, Y101W
VL: B1 VL with K24R, V29I
B8: P24E932 (antibody, human IgG4 S228P, kappa, V domains shown)
VH: B1 VH with T57V
VL: B1 VL with K24R, V29I
B9: P24E9 (antibody, human IgG4 S228P, kappa, V domains shown)
VH: B1 VH with A33G, I34V, S35I, A60N, K99R
VL: B1 VL with V29I, W32Y, A51T, Y52N, A55H, Q89L
B10: P24E933 (antibody, human IgG4 S228P, kappa, V domains shown)
VH: B1 VH
VL: B1 VL with K24R, L54R, N92G
B11: P24E923 (antibody, human IgG4 S228P, kappa, V domains shown)
VH: B1 VH with K99R, Y101W
VL: B1 VL
B12: P24E973 (antibody, human IgG4 S228P, kappa, V domains shown)
VH: B1 VH with T57V
VL: B1 VL with K24R, L54R, N92G, S93H
B13: P24E975 (antibody, human IgG4 S228P, kappa, V domains shown)
VH: B1 VH with G55Q, T57V
VL: B1 VL with K24R, L54R, N92H, S93H
B14: P24E919 (antibody, human IgG4 S228P, kappa, V domains shown)
VH: B1 VH with K99R, Y101F
VL: B1 VL
B15: P24E917 (antibody, human IgG4 S228P, kappa, V domains shown)
VH: B1 VH
VL: B1 VL with N92G
B16: P24E916 (antibody, human IgG4 S228P, kappa, V domains shown)
VH: B1 VH
VL: B1 VL with K24R, L54R
B17: P24E951 (antibody, human IgG4 S228P, kappa, V domains shown)
VH: B1 VH with G55Q, T57V
VL: B1 VL with K24R, L54R, N92G
B18: P24E924 (antibody, human IgG4 S228P, kappa, V domains shown)
VH: B1 VH with K99R, Y101W
VL: B1 VL with K24R, L54R
B19: P24E921 (antibody, human IgG4 S228P, kappa, V domains shown)
VH: B1 VH with K99R, Y101F
VL: B1 VL with N92G
B20: P24E22 (antibody, human IgG4 S228P, kappa, V domains shown)
VH: B1 VH with S30N, A33G, I34V, S35I, K99R
VL: B1 VL with V29I, W32Y, A51T, Y52N, A55H, Q89L
B21: P24E972 (antibody, human IgG4 S228P, kappa, V domains shown)
VH: B1 VH with T57V
VL: B1 VL with K24R, L54R, N92H, S93H
B22: P24E971 (antibody, human IgG4 S228P, kappa, V domains shown)
VH: B1 VH with T57V
VL: B1 VL with K24R, L54R, N92H
B23: P24E920 (antibody, human IgG4 S228P, kappa, V domains shown)
VH: B1 VH with K99R, Y101F
VL: B1 VL with K24R, L54R
B24: P24E930 (antibody, human IgG4 S228P, kappa, V domains shown)
VH: B1 VH with T57V
VL: B1 VL with K24R, L54R, N92G
B25: P24E936 (antibody, human IgG4 S228P, kappa, V domains shown)
VH: B1 VH with T57V, Y104H
VL: B1 VL with K24R, L54R, N92G, S93H
B26: P24E977 (antibody, human IgG4 S228P, kappa, V domains shown)
VH: B1 VH with G55Q, T57V
VL: B1 VL with K24R, N50D, L54R, N92H
B27: P24E918 (antibody, human IgG4 S228P, kappa, V domains shown)
VH: B1 VH with K99R, Y101F
VL: B1 VL with K24R, V29I
B28: P24E931 (antibody, human IgG4 S228P, kappa, V domains shown)
VH: B1 VH with T57V
VL: B1 VL with N92G
B29: P24E953 (antibody, human IgG4 S228P, kappa, V domains shown)
VH: B1 VH with G55Q, T57V
VL: B1 VL with K24R, N50D, L54R, N92G

Target: T1, human PAR-2
Test: cell-based or functional assay

PAR-2 β-arrestin cell based assay IC50, 2 µM SLIGKV | PAR-2 β-arrestin cell based assay IC50, 1 µM SLIGKV | PAR-2 β-arrestin cell based assay IC50 (SLIGKV mark missing) | Binder
1.16 nM |  |  | B1
0.94 nM |  |  | B2
 | 26.9 nM |  | B3
1.5 nM |  |  | B4
1.5 nM |  |  | B5
 | 2.47 nM |  | B6
1.01 nM |  |  | B7
1.4 nM |  |  | B8
 | 11.3 nM |  | B9
1.4 nM |  |  | B10
0.99 nM |  |  | B11
2.35 nM |  |  | B12
0.75 nM |  |  | B13
1.44 nM |  |  | B14
0.93 nM |  |  | B15
1.1 nM |  |  | B16
2.55 nM and 1.17 nM |  |  | B17
0.79 nM |  |  | B18
1.9 nM |  |  | B19
 | 2.5 nM |  | B20
1.52 nM |  |  | B21
2.4 nM |  |  | B22
1.32 nM |  |  | B23
1.4 nM |  | 1.7 nM | B24
1.8 nM |  |  | B25
1.73 nM |  |  | B26
1.18 nM |  |  | B27
2 nM |  |  | B28
3.64 nM and 1.84 nM |  |  | B29

Source: US20220056125A1 (CEPHALON, published 2022)
